From the supplement of paper PMC7877785
± gives the uncertainty stated by the source.

Experiment: self-splicing fitness, log relative to wild type (ln ratio); higher = more splicing; Tetrahymena group I intron in knt gene, E. coli kanamycin selection, DiMSum; sequences stand for … in CUCUCU…GGAGGGAAAAGUUAUCAGGCAUGCACCUGGUAGCUAGUCUUUAAACCAAUAGAUUGCAUCGGUUUAAAAGGCAAGACCGUCAAAUUGCGGGAAAGGGGUCAACAGCCGUUCAGUACCAAGUCUCAGGGGAAACUUUGAGAUGGCCUUGCAAAGGGUAUGGUAAUAAGCUGACGGACAUGGUCCUAACCACGCAGCCAAGUCCUAAGUCAACAGAUCUUCUGUUGAUAUGGAUGCAGUUCACAGACUAAAUGUCGGUCGGGGAAGAUGUAUUCUUCUCAUAAGAUAUAGUCGGACCUCUCCUUAAUGGGAGCUAGCGGAUGAAGUGAUGCAACACUGGAGCCGCUGGGAACUAAUUUGUAUGCGAAAGUAUAUUGAUUAGUUUUGGAGUACUCGUGGUCG
Outline: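 Colonies from six replicate transformations of E. coli BL21(DE3) were pooled and amplicon-sequenced on an Illumina HiSeq 2500. The library placed an intron with all eight P1ex-region nucleotides randomised inside the knt kanamycin-resistance gene on pET-22b(+), and cells grew overnight at 37°C or 30°C on LB agar with or without 25 μg/mL kanamycin (plus 100 μg/mL carbenicillin, 50 μM IPTG, 0.2% rhamnose). Fitness is the DiMSum error-weighted combination of wild-type-normalised replicate fold changes, kanamycin versus none.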

Sequence	self-splicing fitness (ln) (30 °C)	self-splicing fitness (ln) (37 °C)
GGAUAGCAAUAUUACGGACG	-0.899 ± 0.13	-0.693 ± 0.17
UUGUAGCAAUAUUACGUCUA	-0.856 ± 0.086	-0.738 ± 0.11
ACCAAGCAAUAUUACGCGAG	-2.46 ± 0.076	-1.27 ± 0.072
UCUGAGCAAUAUUACGGUUU	-3.14 ± 0.23	-1.4 ± 0.24
CAUAAGCAAUAUUACGUGAU	-3.26 ± 0.16	-2.41 ± 0.16
UGAAAGCAAUAUUACGACCU	-0.0194 ± 0.1	0.188 ± 0.12
UGACAGCAAUAUUACGCAAC	-2.25 ± 0.29	-1.24 ± 0.25
UGUGAGCAAUAUUACGAAUG	-2.16 ± 0.1	-0.688 ± 0.097
GGUGAGCAAUAUUACGGCCG	-1.15 ± 0.38	-2.11 ± 0.24
GUACAGCAAUAUUACGCGGC	-1.83 ± 0.34	-2.11 ± 0.36
UCUAAGCAAUAUUACGGCGU	-2.01 ± 0.11	-0.795 ± 0.11
GGCGAGCAAUAUUACGCUGU	-2.63 ± 0.22	-2.66 ± 0.27
CGAAAGCAAUAUUACGCGAG	-2.88 ± 0.25	-2.26 ± 0.22
CCUGAGCAAUAUUACGGGAU	-3.46 ± 0.24	-1.63 ± 0.2
UACUAGCAAUAUUACGACUG	-0.572 ± 0.095	0.113 ± 0.13
UUGGAGCAAUAUUACGCUAU	-2.08 ± 0.44	-1.93 ± 0.28
GCAAAGCAAUAUUACGCAGA		-2.76 ± 0.3
CGGUAGCAAUAUUACGCUCC	-2.2 ± 0.38	
GUGAAGCAAUAUUACGAUAG	-2.11 ± 0.19	-0.681 ± 0.18
UUCAAGCAAUAUUACGACGU	-0.831 ± 0.094	0.325 ± 0.13
AGCUAGCAAUAUUACGCAUG	-2.12 ± 0.16	-1.06 ± 0.12

Sequence	self-splicing fitness (ln) (30 °C)	self-splicing fitness (ln) (37 °C)
GUCAAGCAAUAUUACGCUGG	-4.08 ± 0.28	-3.72 ± 0.29
UGGGAGCAAUAUUACGAGUC		-1.83 ± 0.47
UCCGAGCAAUAUUACGAGAU	-3.41 ± 0.24	-2.02 ± 0.29
GGUAAGCAAUAUUACGAUUG	-3.48 ± 0.48	-3.44 ± 0.39
GAAGAGCAAUAUUACGACAC	-1.1 ± 0.31	0.351 ± 0.33
UCCAAGCAAUAUUACGGUUG	-3.43 ± 0.13	-3.04 ± 0.19
AGGAAGCAAUAUUACGUGUU	-3.8 ± 0.21	-0.935 ± 0.14
AAGCAGCAAUAUUACGCCGU	-1.22 ± 0.11	-0.738 ± 0.13
CCGCAGCAAUAUUACGGCGG	-4.17 ± 0.22	-3.33 ± 0.26
CUGAAGCAAUAUUACGGCUU	-4 ± 0.34	-2.84 ± 0.26
GCUGAGCAAUAUUACGCUGA	-2.99 ± 0.2	-1.15 ± 0.17
UGUCAGCAAUAUUACGUACU	-0.114 ± 0.058	0.497 ± 0.078
CUUCAGCAAUAUUACGUUAG	-1.66 ± 0.071	-1.25 ± 0.094
CGAAAGCAAUAUUACGACAG	-0.552 ± 0.068	-0.0312 ± 0.081
GCAGAGCAAUAUUACGCCAU	-3.75 ± 0.4	-2.78 ± 0.32
AUAUAGCAAUAUUACGGUGG	-3.4 ± 0.22	-2.44 ± 0.25
AAAGAGCAAUAUUACGCCAA	-1.26 ± 0.21	
AGUGAGCAAUAUUACGCCUG	-3.85 ± 0.29	-2.38 ± 0.29
AUCUAGCAAUAUUACGCGAG	-1.92 ± 0.14	-0.183 ± 0.1
CUAGAGCAAUAUUACGGCAC		-0.856 ± 0.49
GCCAAGCAAUAUUACGGAGG	-3.49 ± 0.19	-1.08 ± 0.16

Sequence	self-splicing fitness (ln) (30 °C)	self-splicing fitness (ln) (37 °C)
AAUAAGCAAUAUUACGGGUA	-2.49 ± 0.21	-1.32 ± 0.14
AGGCAGCAAUAUUACGCAUC	-3.99 ± 0.19	-1.04 ± 0.11
ACAGAGCAAUAUUACGCAGU		-2.62 ± 0.4
CAGAAGCAAUAUUACGUUCU	-2.75 ± 0.11	-1.88 ± 0.1
UGGUAGCAAUAUUACGUGCU	-2 ± 0.13	-1.18 ± 0.16
GAGGAGCAAUAUUACGUAAG	-3.04 ± 0.27	-2.13 ± 0.34
AAACAGCAAUAUUACGAGCG	-1.93 ± 0.079	-0.668 ± 0.095
GGCCAGCAAUAUUACGGAAU	-0.615 ± 0.057	-0.0748 ± 0.068
GCUAAGCAAUAUUACGCUGC	-3.12 ± 0.34	
ACGUAGCAAUAUUACGCUGU	-2.65 ± 0.17	-2.34 ± 0.21
AUCCAGCAAUAUUACGUGCA	-1.63 ± 0.091	-0.196 ± 0.091
CUGUAGCAAUAUUACGGCUC	-2.55 ± 0.19	-2.13 ± 0.29
ACUGAGCAAUAUUACGCUGA	-2.19 ± 0.47	-1.2 ± 0.34
GAAGAGCAAUAUUACGCCCA	-3.65 ± 0.48	-0.321 ± 0.31
GUAAAGCAAUAUUACGCGUG	-1.05 ± 0.076	-0.992 ± 0.08
CACAAGCAAUAUUACGGGGC	-3.54 ± 0.17	-2.54 ± 0.18
AUAAAGCAAUAUUACGUAGG	-2.93 ± 0.12	-1.51 ± 0.15
GCGCAGCAAUAUUACGAGCU	-3.19 ± 0.28	-1.74 ± 0.16
AGGUAGCAAUAUUACGUUCC	-0.904 ± 0.018	-0.623 ± 0.036
GGUGAGCAAUAUUACGCUAC	-2.34 ± 0.2	
